{"source": "patent US20060199768A1", "biological_target": "RecA protein (E. coli)"}
{"substance": "RecA N-30 (peptide)", "values": [{"measurement": "I50, ATPase activity of the RecA NPF", "value": 600, "unit": "µM"}]}
